The values that follow come from PMC6591306.

Assay in all cases: cysteine cross-linking, non-reducing SDS-PAGE, quantification of fluorescent blots
Assay [1] deals with GB1 double cysteine mutant with one cysteine in TM4 and one in TM7 (co-expressed with a non-mutated GB2). The note with it: + CuP, co-expressed with GB2Ctr, parent: est. 2, read off a plot.
For a further assay, the target named is GB2^5.40. The note with it: + CuP; cell surface SNAP-GB1 labelled with fluorescent SNAP substrate; no ligand; parent: est. 2; read off a plot.
The target in assay [2] is GB1 double cysteine mutant with one cysteine in TM4 and one in TM1 (co-expressed with a non-mutated GB2). Conditions: + CuP, co-expressed with GB2Ctr, parent: est. 2, read off a plot.
The target in assay [3] is GB1 double cysteine mutant with one cysteine in TM5 and one in TM1 (co-expressed with a non-mutated GB2). Conditions: + CuP, co-expressed with GB2Ctr, parent: est. 2, read off a plot.
The target of another assay is GB2^5.41. The note with it: + CuP; cell surface SNAP-GB1 labelled with fluorescent SNAP substrate; no ligand; parent: est. 2; read off a plot.
The target in assay [4] is GB2 L711C^6.59 (in GB2^Ctr) (UniProt O88871). Conditions: + CuP; cell surface SNAP-GB1 labelled with fluorescent SNAP substrate; no ligand; parent: est. 2; read off a plot.
Another assay deals with GB1 1.45/6.55. Conditions: + CuP, co-expressed with GB2Ctr, parent: est. 2, read off a plot.
Assay [5] deals with double mutant of GB1 carrying one cysteine in TM5 (I771C^5.42) and one in TM7 (L838C^7.34). The note with it: + CuP, co-expressed with GB2Ctr, parent: est. 2, read off a plot.
In the next assay the target is GB1 4.52/6.55. Conditions: + CuP, co-expressed with GB2Ctr, parent: est. 2, read off a plot.
For assay [6], the target named is GB2^5.42 (cysteine mutant of GB2^Ctr at position 5.42) (UniProt O88871). The note with it: + CuP; cell surface SNAP-GB1 labelled with fluorescent SNAP substrate; no ligand; parent: est. 2; read off a plot.
In a further assay the target is GB2^5.45. Conditions: + CuP; cell surface SNAP-GB1 labelled with fluorescent SNAP substrate; no ligand; parent: est. 2; read off a plot.
The target in the next assay is GB2^6.54. The note with it: + CuP; cell surface SNAP-GB1 labelled with fluorescent SNAP substrate; no ligand; parent: est. 2; read off a plot.
In another assay the target is GB2^6.55. The note with it: + CuP; cell surface SNAP-GB1 labelled with fluorescent SNAP substrate; no ligand; parent: est. 2; read off a plot.

For the substance “GB1^Ctr (control GABAB1 subunit: SNAP-tagged rat GB1a truncated in the C-terminal region) 4.52 Cys; L838C”, the other: Oligomer (% total GB1) in assay [1] (+ GABA 100 μM) amounted to 12 % total GB1; in assay [1] (no agonist), 7 % total GB1.
For the substance m1; m2 GB1:5.40 Cys; GB2:5.40 Cys, the other: Change of GB1-GB2 dimer cross-linking (%) in the assay with GB2^5.40 was found to be 12%.
Take “GB1^Ctr (control GABAB1 subunit: SNAP-tagged rat GB1a truncated in the C-terminal region) 1.45 Cys; 4.52 Cys”: the other: Oligomer (% total GB1) in assay [2] (+ GABA 100 μM) came out at 32 % total GB1; in [2] (no agonist) it was 24 % total GB1.
On to “GB1^Ctr (control GABAB1 subunit: SNAP-tagged rat GB1a truncated in the C-terminal region) 1.45 Cys; I771C”, for which the other: Oligomer (% total GB1) in assay [3] (+ GABA 100 μM) was determined as 12 % total GB1; in assay [3] (no agonist), 5 % total GB1.
On to m1; m2 GB1:5.41 Cys; GB2:5.41 Cys, for which, in the assay with GB2^5.41, the other: Change of GB1-GB2 dimer cross-linking (%) was 28%.
On to m1; m2 GB1:I824C; GB2:L711C, for which, in [4], the other: Change of GB1-GB2 dimer cross-linking (%) stood at 28%.
Regarding “GB1^Ctr (control GABAB1 subunit: SNAP-tagged rat GB1a truncated in the C-terminal region) 1.45 Cys; 6.55 Cys”, the other: Oligomer (% total GB1) was determined as 4 % total GB1 in the assay with GB1 1.45/6.55 (+ GABA 100 μM) and 2.5 % total GB1 with GB1 1.45/6.55 (no agonist).
Regarding “GB1^Ctr (control GABAB1 subunit: SNAP-tagged rat GB1a truncated in the C-terminal region) I771C; L838C”, the other: Oligomer (% total GB1) in assay [5] (+ GABA 100 μM) amounted to 2.5 % total GB1; in assay [5] (no agonist) it was 1 % total GB1.
With “GB1^Ctr (control GABAB1 subunit: SNAP-tagged rat GB1a truncated in the C-terminal region) 4.52 Cys; 6.55 Cys”, the other: Oligomer (% total GB1) with GB1 4.52/6.55 (+ GABA 100 μM) turned out to be 21 % total GB1; with GB1 4.52/6.55 (no agonist) it was 16 % total GB1.
As to m1; m2 GB1:I771C; GB2:5.42 Cys, the other: Change of GB1-GB2 dimer cross-linking (%) in assay [6] amounted to 14%.
For the substance m1; m2 GB1:5.45 Cys; GB2:5.45 Cys, the other: Change of GB1-GB2 dimer cross-linking (%) with GB2^5.45 came out at 24%.
Consider m1; m2 GB1:6.54 Cys; GB2:6.54 Cys, for which the other: Change of GB1-GB2 dimer cross-linking (%) in the assay with GB2^6.54 came to 23%.
Consider m1; m2 GB1:6.55 Cys; GB2:6.55 Cys, for which the other: Change of GB1-GB2 dimer cross-linking (%) with GB2^6.55 was 32%.
